Measured values taken from patent publication US20260224670.

T1: EB2 of mouse neurons and mouse brain, Q8R001
T1 chain: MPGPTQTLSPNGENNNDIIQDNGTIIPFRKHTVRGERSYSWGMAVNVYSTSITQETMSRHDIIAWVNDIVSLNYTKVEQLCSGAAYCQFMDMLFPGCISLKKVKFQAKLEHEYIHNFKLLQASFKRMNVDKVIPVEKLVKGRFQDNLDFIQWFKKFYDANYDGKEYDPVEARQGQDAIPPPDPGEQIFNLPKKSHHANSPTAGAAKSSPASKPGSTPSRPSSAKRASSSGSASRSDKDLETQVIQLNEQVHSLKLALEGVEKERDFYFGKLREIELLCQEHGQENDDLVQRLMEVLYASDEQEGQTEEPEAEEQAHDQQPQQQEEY

B1: hCDKL2 (cyclin dependent kinase like 2), 3xFLAG-TwinStrep tagged (protein)
chain: MEKYENLGLVGEGSYGMVMKCRNKDTGRIVAIKKFLESDDDKMVKKIAMREIKLLKQLRHENLVNLLEVCKKKKRWYLVFEFVDHTILDDLELFPNGLDYQVVQKYLFQIINGIGFCHSHNIIHRDIKPENILVSQSGVVKLCDFGFARTLAAPGEVYTDYVATRWYRAPELLVGDVKYGKAVDVWAIGCLVTEMFMGEPLFPGDSDIDQLYHIMMCLGNLIPRHQELFNKNPVFAGVRLPEIKEREPLERRYPKLSEVVIDLAKKCLHIDPDKRPFCAELLHHDFFQMDGFAERFSQELQLKVQKDARNVSLSKKSQNRKKEKEKDDSLVEERKTLVVQDTNADPKIKDYKLFKIKGSKIDGEKAEKGNRASNASCLHDSRTSHNKIVPSTSLKDCSNVSVDHTRNPSVAIPPLTHNLSAVAPSINSGMGTETIPIQGYRVDEKTKKCSIPFVKPNRHSPSGIYNINVTTLVSGPPLSDDSGADLPQMEHQH
B2: mouse CDKL2 (endogenous) (protein)
chain: MEKYENLGLVGEGSYGMVMKCRNKDSGRIVAIKKFLESDDDKMVKKIAMREIKLLKQLRHENLVNLLEVCKKKKRWYLVFEFVDHTILDDLKLFPNGLDYQVVQKYLFQIINGIGFCHSHNIIHRDIKPENILVSQSGVVKLCDFGFARTLAAPGEVYTDYVATRWYRAPELLVGDVKYGKAVDIWAIGCLVIEMLMGQPLFPGESDIDQLHHIMTCLGNLIPRHQELFYKNPVFAGVRLPEVKDAEAEPLESRYPKLPEAVISLAKKCLHIDPDKRPFCADLLRHDFFQMDGFAERFSQELQLKIEKDARNNSLPKKSQNRKKEKDDALGEERKTLVVQDTNADPKIKDSKVFKVKGSKIDVEKMEKGSRASNANCLHDNGTNHKGLASTSLRDCSNVNIDHSRNPGTAIPPLTHNLSAVAPGINAGMGTIPGVQNYRVDEKTKKYCNPFVKPNQPPPAGIYNMNVSTSVSGEKYLLQANKKRKEYPKADVRLPELNYNHLPELRALEGIARNSRLIKKENKCLSESRIPSLAAIDLHVSSVASHQGAGSPLSDDSEADLPRMEHQH
B3: mouse CDKL5 (endogenous) (protein)
chain: MKIPNIGNVMNKFEILGVVGEGAYGVVLKCRHKETHEIVAIKKFKDSEENEEVKETTLRELKMLRTLKQENIVELKEAFRRRGKLYLVFEYVEKNMLELLEEMPNGVPPEKVKSYIYQLIKAIHWCHKNDIVHRDIKPENLLISHNDVLKLCDFGFARNLSEGNNANYTEYVATRWYRSPELLLGAPYGKSVDMWSVGCILGELSDGQPLFPGESEIDQLFTIQKVLGPLPSEQMKLFYSNPRFHGLRFPAVNHPQSLERRYLGILNSVLLDLMKNLLKLDPADRYLTEQCLNHPTFQTQRLLDRSPSRSTKRKPYHVESSTLSNRNQSTKGAALQTHHRSNSKDIQNLSVGLPRAEEGLPANESFLNGNLAGATLSPMHTKTYQASTQPGSSSKDLTNNNIPHLLSPKEAKSKTEFDFNIDTKPSEGPGTKYLKSSTRSQQNRHSFMESSQSKAGTLQPSEKQSRHSYIDTIPQSSRSPSYRTKAKSHGALSDSKSVSNLSEARAQITETNTSRYFPSSCLDLNSPTSPTPTRHTDTRTLLSPSGRNNRNEGTLDSRRTTTRHSKTMEELKLPEHMDSSHSHSLSAPHESFSYGLGYTSPFSSQQRPHRHSMYVTRDKVRAKGLDGSLSIGQGMAARANSLQLLSPQPGEQLPPEMTVARPSVKESSREGASSFHTRQKSEGGVYHDPHSDDGTAPKENRHLYNDPVPRRVGSFYRVPSPRPDNSFHENNVSTRVSSLPSDSSSGTNHSKRQPGFDPWKSPENISHADQLKEKEKQGFFRSMKKKKKKTQTVPNTDGPDLLTLQKAIHSSSTASSRPKEWRPEKLSDLQTQSQPLKSLRKLLHLSSSTNHPASSDPRFQPLTAQQAKNSFSEIRIHPLSQATGGSSNIRQEPTPKGRPALQLPGSSLLRYNGWKHSRSRSSQPDEVIFLASHEKWKQ
B4: hICK, 3xFLAG-TwinStrep tagged (protein)
chain: MNRYTTIRQLGDGTYGSVLLGRSIESGELIAIKKMKRKFYSWEECMNLREVKSLKKLNHANVVKLKEVIRENDHLYFIFEYMKENLYQLIKERNKLFPESAIRNIMYQILQGLAFIHKHGFFHRDLKPENLLCMGPELVKIADFGLAREIRSKPPYTDYVSTRWYRAPEVLLRSTNYSSPIDVWAVGCIMAEVYTLRPLFPGASEIDTIFKICQVLGTPKKTDWPEGYQLSSAMNFRWPQCVPNNLKTLIPNASSEAVQLLRDMLQWDPKKRPTASQALRYPYFQVGHPLGSTTQNLQDSEKPQKGILEKAGPPPYIKPVPPAQPPAKPHTRISSRQHQASQPPLHLTYPYKAEVSRTDHPSHLQEDKPSPLLFPSLHNKHPQSKITAGLEHKNGEIKPKSRRRWGLISRSTKDSDDWADLDDLDFSPSLSRIDLKNKKRQSDDTLCRFESVLDLKPSEPVGTGNSAPTQTSYQRRDTPTLRSAAKQHYLKHSRYLPGISIRNGILSNPGKEFIPPNPWSSSGLSGKSSGTMSVISKVNSVGSSSTSSSGLTGNYVPSFLKKEIGSAMQRVHLAPIPDPSPGYSSLKAMRPHPGRPFFHTQPRSTPGLIPRPPAAQPVHGRTDWASKYASRR
B5: CDKL5 (recombinantly expressed) (protein)
chain: MKIPNIGNVMNKFEILGVVGEGAYGVVLKCRHKETHEIVAIKKFKDSEENEEVKETTLRELKMLRTLKQENIVELKEAFRRRGKLYLVFEYVEKNMLELLEEMPNGVPPEKVKSYIYQLIKAIHWCHKNDIVHRDIKPENLLISHNDVLKLCDFGFARNLSEGNNANYTEYVATRWYRSPELLLGAPYGKSVDMWSVGCILGELSDGQPLFPGESEIDQLFTIQKVLGPLPSEQMKLFYSNPRFHGLRFPAVNHPQSLERRYLGILNSVLLDLMKNLLKLDPADRYLTEQCLNHPTFQTQRLLDRSPSRSAKRKPYHVESSTLSNRNQAGKSTALQSHHRSNSKDIQNLSVGLPRADEGLPANESFLNGNLAGASLSPLHTKTYQASSQPGSTSKDLTNNNIPHLLSPKEAKSKTEFDFNIDPKPSEGPGTKYLKSNSRSQQNRHSFMESSQSKAGTLQPNEKQSRHSYIDTIPQSSRSPSYRTKAKSHGALSDSKSVSNLSEARAQIAEPSTSRYFPSSCLDLNSPTSPTPTRHSDTRTLLSPSGRNNRNEGTLDSRRTTTRHSKTMEELKLPEHMDSSHSHSLSAPHESFSYGLGYTSPFSSQQRPHRHSMYVTRDKVRAKGLDGSLSIGQGMAARANSLQLLSPQPGEQLPPEMTVARSSVKETSREGTSSFHTRQKSEGGVYHDPHSDDGTAPKENRHLYNDPVPRRVGSFYRVPSPRPDNSFHENNVSTRVSSLPSESSSGTNHSKRQPAFDPWKSPENISHSEQLKEKEKQGFFRSMKKKKKKSQTVPNSDSPDLLTLQKSIHSASTPSSRPKEWRPEKISDLQTQSQPLKSLRKLLHLSSASNHPASSDPRFQPLTAQQTKNSFSEIRIHPLSQASGGSSNIRQEPAPKGRPALQLPGQMDPGWHVSSVTRSATEGPSYSEQLGAKSGPNGHPYNRTNRSRMPNLNDLKETAL

Biological target: T1, EB2 of mouse neurons and mouse brain, …

Row | Protein | phospho-Ser222 EB2 in transfected CDKL5 KO primary cortical neurons | other results
1 | B1 | pS222 EB2 is specifically increased in the neurons that express these kinases | –
2 | B2 | – | okadaic acid dependent increase of pEB2/EB2 in CDKL5 KO primary neurons after CDKL2 shRNA knockdown: Both shRNAs caused a reduction of the OA dependent increase of pEB2/EB2
3 | B3 | – | pS222 EB2 in primary cortical cultures of CDKL5 KO against wild type littermates: pS222 EB2 is much lower in CDKL5 KOs
4 | B4 | pS222 EB2 is specifically increased in the neurons that express these kinases | –
5 | B5 | pS222 EB2 is specifically increased in the neurons that express these kinases | –
